Key:
[1] = target: c-kit proto-oncogene (receptor of KL) on murine cells (murine, UniProt P05532); experiment: cell-based or functional assay
[2] = target: c-kit proto-oncogene (receptor of KL) on human cells (human, UniProt P10721); experiment: cell-based or functional assay

proliferation of murine mast cells (BMMC), 3H-thymidine incorporation [1]: 10 fold
proliferation of human cell lines (M07e), 3H-thymidine incorporation [2]: 10 fold
B1: murine covalent dimer kit ligand (KL-CD), biologically active form (ligand)
chain: MMKKTQTWIITCIYLQLLLFNPLVKTKEICGNPVTDNVKDITKLVANLPNDYMITLNYVAGMDVLPSHCWLRDMVIQLSLSLTTLLDKFSNISEGLSNYSIIDKLGKIVDDLVLCMEENAPKNIKESPKRPETRSFTPEEFFSIFNRSIDAFKDFMVASDTSDCV
modifications: at least one intermolecular disulfide bond between one of the four cysteines (4, 43, 89, 138) of one monomer and one of the four cysteines of the other monomer; which cysteines is not determined
